One may read the IC50 as the concentration that gives 50% inhibition. Low values mean higher potency, high ones lower potency.

Results on two molecules are retold here after PMC9904277 (2023).

The test deals with MCL-1 (Homo sapiens, UniProt Q07820). In words: competition fluorescence anisotropy.
Chain of MCL-1 (Q07820 whole entry): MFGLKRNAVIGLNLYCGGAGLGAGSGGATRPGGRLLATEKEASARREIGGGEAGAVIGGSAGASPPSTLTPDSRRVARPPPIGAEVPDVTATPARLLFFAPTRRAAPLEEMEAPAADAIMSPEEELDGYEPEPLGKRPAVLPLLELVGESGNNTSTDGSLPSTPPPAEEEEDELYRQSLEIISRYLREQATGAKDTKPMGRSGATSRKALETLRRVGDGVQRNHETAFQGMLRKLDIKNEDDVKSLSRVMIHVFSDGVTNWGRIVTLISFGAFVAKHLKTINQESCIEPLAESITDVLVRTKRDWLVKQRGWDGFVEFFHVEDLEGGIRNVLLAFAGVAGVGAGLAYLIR

Molecule SAAQLTAARLKALGDELHQRTMW [HRK-wt 28-50] showed a 50% inhibitory concentration (IC50) of 2700 nM. In the case of NLWAAQRYGRELRRMSDEFVDSFKK [BAD-wt BH3] it was more than 50000 nM.
